# From US20210115421
# Assays:
# Test in all cases: cell_activity
# [1] = tested on: dLbCas12a-T152R-K538W-K595Y T152R,K538W,K595Y (Lachnospiraceae bacterium ND2006); settings: PAM-SCANR in E. coli
# [2] = tested on: dLbCas12a-K595Y K595Y (Lachnospiraceae bacterium ND2006)
# [3] = tested on: dLbCas12a-T152R T152R (Lachnospiraceae bacterium ND2006); settings: PAM TTTG; PAM-SCANR in E. coli, cutoff 1.67
# [4] = tested on: dLbCas12a-K538W K538W (Lachnospiraceae bacterium ND2006)
# [5] = tested on: dLbCas12a-K538W-K595Y K538W,K595Y (Lachnospiraceae bacterium ND2006)
# [6] = tested on: dLbCas12a-T152R-K538W T152R,K538W (Lachnospiraceae bacterium ND2006); settings: PAM TTTC; printed column identical to K538W+K595Y column
# [7] = tested on: wt dLbCas12a (catalytically inactive LbCas12a) (Lachnospiraceae bacterium ND2006); settings: PAM-SCANR in E. coli, cutoff 1.67
# [8] = tested on: dLbCas12a-G532R-K595R (RR) G532R,K595R (Lachnospiraceae bacterium ND2006); settings: PAM-SCANR in E. coli
# [9] = PAM CCCC, not recognized by single mutant
substance,measurement,setting,value
"crRNA targeting lacI promoter ; lacI promoter reporter, AGCC PAM",binding signal (normalized score),[1]; PAM AGCC,13.7
"crRNA targeting lacI promoter ; lacI promoter reporter, TCGC PAM",binding signal (normalized score),"[2]; PAM TCGC, PAM-SCANR in E. coli, cutoff 1.67",3.23
"crRNA targeting lacI promoter ; lacI promoter reporter, TTTG PAM",binding signal (normalized score),[3],2.94
"crRNA targeting lacI promoter ; lacI promoter reporter, TTTA PAM",binding signal (normalized score),"[4]; PAM TTTA, PAM-SCANR in E. coli, cutoff 1.67, a second K538W column gives 11.18",4.71
same,binding signal (normalized score),"[2]; PAM TTTA, TTTV lost in K595Y",< 1.67
"crRNA targeting lacI promoter ; lacI promoter reporter, TGGC PAM",binding signal (normalized score),[1]; PAM TGGC,10.3
"crRNA targeting lacI promoter ; lacI promoter reporter, TTTC PAM",binding signal (normalized score),"[5]; PAM TTTC, printed column identical to T152R+K538W column",12
same,binding signal (normalized score),[6],12
same,binding signal (normalized score),[7]; PAM TTTC,2.96
"crRNA targeting lacI promoter ; lacI promoter reporter, TTCG PAM",binding signal (normalized score),[8]; PAM TTCG,4.81
"crRNA targeting lacI promoter ; lacI promoter reporter, CCCC PAM",binding signal (normalized score),[8]; PAM CCCC,3.87
same,binding signal (normalized score),[4]; [9],< 1.67
same,binding signal (normalized score),"[5]; PAM CCCC, PAM-SCANR in E. coli",2.95
same,binding signal (normalized score),[2]; [9],< 1.67
"crRNA targeting lacI promoter ; lacI promoter reporter, CCGC PAM",binding signal (normalized score),[7]; PAM CCGC,2.23
